Data published in the DeepSol protein solubility set.

Assay: soluble on expression in E. coli; label from the status in PepcDB or PDB records

Row | Sequence | soluble on expression in E. coli
1 | MSLSTIGSMMSIYSEAGDFGNIFVTGRIAFSLKYEQQTQSLVVHVKECHQLAYADEAKKRSNPYVKTYLLPDKSRQGKRKTSIKRDTVNPLYDETLRYEIPESLLAQRTLQFSVWHHGRFGRNTFLGEAEIQMDSWKLDKKLDHCLPLHGKISAESPTGLPSHKGELVVSLKYIPASKTPVGGDRKKSKGGEGGELQVWIKEAKNLTAAKAGGTSDSFVKGYLLPMRNKASKRKTPVMKKTLNPHYNHTFVYNGVRLEDLQHMCLELTVWDREPLASNDFLGGVRLGVGTGISNGEVVDWMDSTGEEVSLWQKMRQYEGHHHHHH | not soluble
2 | MGSDKIHHHHHHMLTTLAINNYRSLRDIRLPLGRLNLVTGANGSGKSNLYKALRLLAQTAQGGVVNALAQEGGLDSCFWAGPENLTKGMLSGDTEITPTVRQQTKRLKLGFAGDEFSYLIELGLPKPDNTTLFGLDPQIKREAIWVGNKYRPAAVLVERRGPMVKGRAQQRGQDGWQSLNQHMQHGDSIFTELSDPSRTPEVLRLRDSIRAWRFYDHFRSDSEAPARQPQLGTRTPVLHHDGRDLASAIQTIFEIGDRESFDEAVSDAFPGAHVTIGYQAGGLLSVNFHQQGLLRPLNAQELSDGTLRYLLLIAALLTPRPPELMVLNEPETSLHPDLLPALARLIAKATKVCQLWVVSHANRLINALNEFEQCQLIELDKQLGQTRIVGQDLLSTPGWNWQQKAQG | not soluble
3 | MAHHHHHHMGGAIYNAVNIAEIVKRRIAGLHQITELGSELVRDEYEPIDRTQNPENVVVERKVSTILITLSRNCLDKSNPGYQEPIADSEVTEQERRDPNMSRRGGRGGIRGGRGGSRGGRGGSRGGRGGSRGGRGVAAIDRRDDREN | not soluble
4 | MGSDKIHHHHHHMTMDAATAVSDQGKQDLPAGDGATLSLKDRIARDLGQRILAGIYAQHAVLPTEAELCVIYGASRTALRDALLTLSAKGLIEARKRAGTRVRVSSEWNRLDAQVLEWMRDIEPDLDFVRGLIEARLVIEPAAAQLAAKMATSGDLAVIEAAYEAMRIAPEDDLAACLDADVRFHTAILRASRNPVFANLGNMLAAALSFSFRLTTSATANYQQTLSAHGDVLEAIRMRRVDDAHDQMKALIGIASNDLLAVARKGRHQQPVPTASADPI | not soluble
5 | MGSDKIHHHHHHMLTMKPEFVAQLERVLSSVEMLLPRAVKPVNWSTCYAANWRRHSFSGFLQAVRVTDTTSLHELLGVEKQKEIMISNTRQFLKGLPANNALLWGSRGTGKSSLVKALLNEYACEGLRVIQVEKEDLIYLSDIFSAVEGEPYRFILLCDDLTFEPGELTYKILKSALDGSVYSPPENVLIYVTSNRRHLLPEYESDNIGWKLVNGELQESEATEEKIALSDRFGLWVPFHVFTQDRYLEAVRLCVEREARTREVDIPWSEQLRLDAIQWSHDKKKRCGRTAYQFSKHWVGKYLLARQAA | not soluble
6 | MTKYRLSEEPRAFTYQVDGEKKSVLLRQVIAVTDFNDVKAGTSGGWVDAGNVLSQQGDCWIYDENAMAFAGTEITGNARITQPCSLYNNVRIGDNVWIDRSDISDGARISDNVTIQSSSVRGECAIYGDARVLNQSEILAVQGLTHEHAQILQIYDRATVNHSRIVHQVQLYGDATITLAFIEHRAEVFDFALIEGNKDNNVWICDCAKVYGHARVIAGTEEDAIPTLRYSSQVAEHALIEGNCVLKHHVLVGGHAEIRGGPILLDDRVLIEGQACIQGEILIEHQVEISGRATVIAFDGNTIHLRGPKVINGEDRITRTPLVGSLLEHHHHHH | soluble
7 | MGSDKIHHHHHHMSTSAPINRRLTKKIYVGDVAIGGDAPISVQSMTNTDTCDVAATVAQIERCVEAGADLMRVSTPTMDTVKAFGEIRKLVSVPLIADVHFDHKIALAVAAAGADCLRINPGNIGSDAKVREVVACAKHYNIPIRIGVNAGSLEKDIQRKYKEPNGAAMLESAMRHIDILERLNFDQYKVSVKASNVFLTMDAYRLISAQIDNPLHLGVTEAGVYRTGSVKSAIALGGLLLDGIGDTIRISLAAEPEEEIKIGFDILKSLNIRSNGVNFIACPSCSRQEFDVIRVMTALESRLEDIREPMNLSVIGCKVNGPGEAKEADIGIVGAAPKSLVYRMGEKSHLIDTDNLVDEIEGMVRAHAEELAKKRENEIIRVR | not soluble
8 | MGSDKIHHHHHHMSTARLVLLGGFLGAGKTTTMIKSALKLEKEGYRVAIVTNDQGKELIDTELARANGLESKEVTGGCFCCQFDDLYNNLNTLMKEKQPDVIIAEAVGSCTDLAATVIQPLKQYYADKFKTAPLTIVVEPARLLHELNLDENTKPFFSQSVSYIFEKQLAEADIIALNKVDRYSEEEIAKLKAYLQQRYPQTIIQTFSAERGDNLEALTHTWLTTDLGGDKVLDIDYELYAEGEAQLAWMNILGDIKAEQDINPREWAEKLLDNLNKHFIREKMAIAHLKVHVGFEGGYVKASMVQTGDAPTFTVENVKEGKEFRIVLNIRIEATPAILNLVVADSIGAINKELGSNWSETYNECFSPLPPKPVHRLYETV | not soluble
9 | MGSDKIHHHHHHMQVEGLSINLATIREQCGFAEAVDICLKHGITAIAPWRDQVAAIGLGEAGRIVRANGLKLTGLCRGGFFPAPDASGREKAIDDNRRAVDEAAELGADCLVLVAGGLPGGSKNIDAARRMVVEGIAAVLPHARAAGVPLAIEPLHPMYAADRACVNTLGQALDICETLGPGVGVAIDVYHVWWDPDLANQIARAGKMKAILAHHICDWLVPTKDMLTDRGMMGDGVIDLKGIRRRIEAAGFHGAQEVEIFSADNWWKRPADEVIATCVERYRNCC | not soluble
10 | MMLITDTGVPERYIDTDEWGGEVMLRLDDGWCAALDRNTMMCTIYEKRPLICREFEAGAEDCLTERKGIATAYL | soluble
11 | YLDVRQVMYTLVAVFIGSRVIDFVQEGAYAARGALIISKDNDAIASHVMLSMNRGVTVLEGRGGFSKNEQDVLYIVVAKNEIVQLKNIVQAIDPHAFVSVSVVHDVMGEGFTLDENKNPIY | not soluble
12 | MSLARSMTTGRSGTIGVVVGDIENPFFSLAVRGITDVARQAGFTVILINSGEDAAAEKAAIRTLLAKRVDGLIVSPAKENDVEHLHEVIRSGLPLALLDRGSDTLEVDTVLADDRYTAENVTSRLIALGHRRIAYLTACDTPDHRFRTPQDISTGSVRRRIEGYLAVCREAGFIGMEDWVKVGAVTPERTHRIVIETLQSGHRPTAIIASDSIIGLEVFKAHRELGLNIPGDLSLVSFHDADWTSVTTPPVTVVRQPVYELGATAARLLVERLNGEDRAARKVVLKNEVVERASTRAIEGHHHHHH | soluble
13 | MGSDKIHHHHHHMKVVKFGGSSLASSQQLYKVLNIIKSDYTRRFVVVSAPGKRYEEDLKMTDALIQYYQNYINGKDIVKDQTWIINRYQEIISDLSLGSTIAEEITRSIEQLASLPIENNQFLYDCFLAAGEDNNAKLVATFFNQNDIPARYVHPNEAGIIVTKEPCNARIIPGSYDKIENLCLYNEVLVIPGFFGVTEDNQICTFSRGGSDITGSLIAAGIKADLYENFTDVDGIFAAHPGVVKNPHAIPELTYKEMRELAYAGFSVLHDEALLPAYRGRIPLVIKNTNNPQQPGTKIVLKHTRSNIAVTGIASDSRFASINVSKYLMNREVGFGRKVLQILEDLNISFEHMPTGIDDLSIVLREKELTPIKEQEILNYLTRKLEVDYVDIQHNLSTIVIVGENMKSQIGVTATATQALSREKINITMISQGSSEVSIMFVINSKDEKRAIKALYETFFQK | not soluble
14 | MAKIPVLEIFGPTIQGEGRVIGRKTMFVRTAGCDYRCSWCDSAFTWDGSAKEDIKLMTAEEIYDALLEIGGHRFNHVTISGGNPALIKGIQELVDLFEDKHIYTALETQGSRFQSWMTQIDDLTISPKPPSSGMKTNLEILDSVINQCTFHSLNLKVVIFDDADYDFAKLIHHRYPNIPFYLQVGNPYLDDNVDQHTDKLLERYEQLVDRVMQSSDMNHVYVLPQLHTLLWSNKKGV | not soluble
15 | MGMRLICLNGWGGKLHDKLVPYIASSDPDILCLQEVVHTPAATQDWLSYRDHGVELPQRANFFRDVAEALPDHVAIFCPAAQGDLWQGETRYPSQFGLATFVRKSIAIIAQAQGFVHGVFSADGYGNHPRSRTAHAIRVFDFTTGQPVVIAHMHGLRDLEGKHDIPARLHQAKRLVQFVKNIAEDGDRVIVCGDFNVLPDSRTFAVLNELDLVELVTTRGFTDTRTSHYAKPNRYADYLLVNPAVKVSQFDVVRQPEVSDHCPLLLEFSMAGDPLEHHHHHH | not soluble
